The series concerns the molecule itself. The series can be described thus: crystal structure; three structures of GlgE (apo form, maltose co-crystallization, maltose-1P co-crystallization); sitting-drop vapour diffusion at 291 K, ~7 mg/ml protein; one dimer per asymmetric unit.

B1: Mycobacterium thermoresistibile GlgE (enzyme, UniProt G7CL00 1-696, looked up)
chain: MAGRIVIDDVQPVVSNGRYPAKAVVGEVVPVAATVWREGHDAVAATLVVRYHGTTYPDLADPPPGVPGADRTAVPIGDVMTPAAPVKPQRLPMSPGHTPDVFHGHFTPDRVGLWTYRVDGWGDPIASWRHNVTAKLDAGQGESELNNDLLVGARLLERAATGVPRELREALLEAAAALRAPGDPFTRAGAALSAEVSDLLAEYPLREFVTRGEQYGVWVDRPEARFSSWYEMFPRSTGGWDAEGRPVHGTFATAAEALPRIARMGFDVVYLPPIHPIGKVHRKGRNNSVTAAPGDVGSPWAIGSDEGGHDAVHPQLGTIEDFDEFVASARDLGLEVALDLALQCAPDHPWAREHPEWFTVLPDGSIAYAENPPKKYQDIYPLNFDNDPAGIYQEVLRVVRFWISHGVNIFRVDNPHTKPPNFWAWLIGQIKNENPDVLFLSEAFTRPARLYGLAKLGFTQSYTYFTWRTSKWELTEFGQEIAAKADIARPNLFVNTPDILHESLQHGGPGMFAIRAVLAATMGPAWGVYSGYELFENQPVRPGSEEYLNSEKYELRPRDFESALARGESLEPFLTRLNEIRRLHPALRELRTIRFHHVDNDALLAYSKFDPGTGDTVLVVVTLNPFGAEEATLWLDMPELGMEPYDRFWVRDEITGEEYQWGQANYVRLDPAKAVAHVLNMPLIPADKRLQLLRRE
notes: GlgE (alpha-1,4-glucan:maltose-1-phosphate maltosyltransferase) of Mycobacterium thermoresistibile DSM 44167; glgE gene amplified from chromosomal DNA with a forward primer that begins at the GTG start codon and a reverse primer that ends at the stop codon; The construct with the cleavable N-terminal SUMO tag gave all crystals; also called maltosyl transferase; source: E. coli BL21(DE3), purified …
On to B1, for which the “stoichiometry N” value came out at 2.

The values are drawn from PMC4663749, “Structure of Mycobacterium thermoresistibile GlgE defines novel conformational states that contribute to the catalytic mechanism” (Scientific Reports, 2015).
